Measured values as given in patent publication US20200368361A1.

Columns and labels:
[1] = biological target: full length monkey MSR1 on HEK293.mfMSR1 cells (Macaca fascicularis); test: ECL cell binding, HEK293.mfMSR1
[2] = biological target: full length human MSR1 with a C-terminal Myc tag on HEK293.Myc.hMSR1 cells (human) (UniProt P21757); test: ECL cell binding, HEK293.Myc.hMSR1
[3] = biological target: endogenously expressed human MSR1 on PMA-treated THP-1 cells (human) (UniProt P21757); test: ECL cell binding, PMA-treated THP-1
endogenously expressed human MSR1 on PMA-treated THP-1 cells (human), sequence (P21757 whole entry, the tested form may be a part): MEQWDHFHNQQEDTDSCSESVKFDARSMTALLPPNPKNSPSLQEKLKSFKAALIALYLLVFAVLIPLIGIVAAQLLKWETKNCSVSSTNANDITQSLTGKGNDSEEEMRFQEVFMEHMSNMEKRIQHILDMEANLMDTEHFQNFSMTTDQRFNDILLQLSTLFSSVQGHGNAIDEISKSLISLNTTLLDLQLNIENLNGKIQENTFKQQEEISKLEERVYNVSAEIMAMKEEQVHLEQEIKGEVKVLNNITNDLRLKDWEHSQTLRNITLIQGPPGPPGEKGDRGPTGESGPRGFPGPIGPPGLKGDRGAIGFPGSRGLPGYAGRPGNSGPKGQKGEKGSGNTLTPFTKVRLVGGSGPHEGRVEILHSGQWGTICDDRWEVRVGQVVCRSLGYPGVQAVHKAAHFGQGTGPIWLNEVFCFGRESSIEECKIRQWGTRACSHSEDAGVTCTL

[4] = biological target: His9-hMSR1, human MSR1 extracellular domain with an N-terminal 9-Histidine tag (human) (UniProt P21757); test: competition ELISA on coated His9-hMSR1; competitor Ac-LDL; antibody 100 nM
His9-hMSR1, human MSR1 extracellular domain with an N-terminal 9-Histidine tag (human), sequence (P21757 other isoform, or with tags, fused parts or gaps): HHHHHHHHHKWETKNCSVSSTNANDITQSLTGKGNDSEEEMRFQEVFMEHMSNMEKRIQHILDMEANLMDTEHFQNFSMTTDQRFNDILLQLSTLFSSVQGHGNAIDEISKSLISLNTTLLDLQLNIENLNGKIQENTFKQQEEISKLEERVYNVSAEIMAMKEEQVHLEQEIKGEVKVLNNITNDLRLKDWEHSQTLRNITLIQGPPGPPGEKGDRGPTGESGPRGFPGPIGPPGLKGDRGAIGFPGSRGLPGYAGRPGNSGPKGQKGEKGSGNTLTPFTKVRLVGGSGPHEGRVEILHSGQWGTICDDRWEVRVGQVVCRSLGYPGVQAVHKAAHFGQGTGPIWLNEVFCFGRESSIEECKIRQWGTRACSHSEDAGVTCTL

[5] = biological target: His9-hMSR1, human MSR1 extracellular domain with an N-terminal 9-Histidine tag (human) (UniProt P21757); test: competition ELISA on coated His9-hMSR1; competitor Ox-LDL 10 nM; antibody 1 µM
[6] = biological target: His9-hMSR1, human MSR1 extracellular domain with an N-terminal 9-Histidine tag (human) (UniProt P21757); test: competition ELISA on coated His9-hMSR1; competitor biot-AGE-BSA; antibody 300 nM
[7] = biological target: human MSR1 endogenously expressed on PMA-differentiated THP-1 cells (human) (UniProt P21757); test: cell-based or functional assay
human MSR1 endogenously expressed on PMA-differentiated THP-1 cells (human), sequence (P21757 whole entry): as the sequence (P21757 whole entry, the tested form may be a part) above

[8] = biological target: human MSR1 endogenously expressed on PMA-differentiated THP-1 cells (human) (UniProt P21757); test: imaging of PMA-differentiated THP-1 cells, 10 ug/mL antibody, Alexa 488 secondary

full length monkey MSR1 on HEK293.mfMSR1 cells (Macaca fascicularis), sequence (chain, as listed by the source): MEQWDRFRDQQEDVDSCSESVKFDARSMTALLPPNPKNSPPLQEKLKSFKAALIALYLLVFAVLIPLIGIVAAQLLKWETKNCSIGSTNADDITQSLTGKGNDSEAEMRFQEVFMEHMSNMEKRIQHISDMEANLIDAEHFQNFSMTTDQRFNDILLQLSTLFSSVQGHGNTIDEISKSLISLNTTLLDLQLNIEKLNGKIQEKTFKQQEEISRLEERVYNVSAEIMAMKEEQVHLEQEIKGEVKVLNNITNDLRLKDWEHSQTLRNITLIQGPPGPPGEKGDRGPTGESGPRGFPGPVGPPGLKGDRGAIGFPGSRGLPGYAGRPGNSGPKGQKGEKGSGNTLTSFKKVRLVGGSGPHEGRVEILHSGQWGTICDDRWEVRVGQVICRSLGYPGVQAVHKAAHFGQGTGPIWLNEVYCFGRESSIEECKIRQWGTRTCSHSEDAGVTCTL
full length human MSR1 with a C-terminal Myc tag on HEK293.Myc.hMSR1 cells (human), sequence (P21757 whole entry): as the sequence (P21757 whole entry, the tested form may be a part) above

Substance	binding signal ratio to isotype control (11 nM) [1]	binding signal ratio to isotype control (11 nM) [2]	binding signal ratio to isotype control (11 nM) [3]	% Blocking [4]	% Blocking [5]	% Blocking [6]	also measured
mIgG Isotype Control (antibody)	1 fold	1 fold	1 fold	–	–	–	–
hIgG1 Isotype Control (antibody)	1 fold	1 fold	1 fold	–	–	–	–
hIgG1 isotype control (competition ELISA of Table 20) (antibody)	–	–	–	-8%	3%	4%	–
Isotype control (internalization assay of Table 19) (antibody)	–	–	–	–	–	–	Total Internalized RFU [7]: 1.7e+06 RFU; Total Binding at 4° C. [8]: 186000 RFU; Total Binding at 37° C. [8]: 1.09e+06 RFU
mIgG1 isotype control (competition ELISA of Table 20) (antibody)	–	–	–	-4%	16%	7%	–
